Consider one substance from patent US12338277.

This assay addresses SHIVAD8EO envelope on pseudotyped virus (SHIV (HIV-1 AD8-derived env)). The assay can be described thus: cell-based or functional assay.

With 3BNC117 (antibody), the IC50, TZM-bl neutralization of SHIVAD8EO is 0.14 µg/mL.
